Patent publication US12359240B2, “Membrane protease-based methods for detection of bacteria” (Nanyang Technological University, priority 2019, dated 2025)
Where no end group is shown, it is not given here.

What was measured:
OmpT [1] = biological target: T1, OmpT (Escherichia coli, UniProt P09169)
OmpT [2] = biological target: T1, OmpT; conditions: for rate of reduction in PT6 fluorescence (cleavage by OmpT) relative to the peptide of Examples 1-5: interpreted from the slope
E. coli K12 = assay: Detection of E. coli in contaminated water with the LL37 peptides and PT6; assay type: cell-based, Escherichia coli; conditions: 10^8 CFU/mL E. coli K12, FIG. 14A
OmpT [3] = biological target: T1, OmpT; conditions: 20 μM peptide, OmpT 6 hours, FIG. 17
[4] = PT6-peptide fluorescence measurements (no enzyme); conditions: FIG. 18
Description: Stock solutions of PT6 was prepared in a reaction buffer such that the absorbance at λmax was ˜1.4. All absorbance and fluorescence measurements were carried out on 100 μL samples in a flat bottom 96 well plate using a TECAN Infinite® 200 PRO (Switzerland). Fluorescence scans were collected by exciting the samples at 495 nm, further recording their emission spectrum from 525-750 nm. […] In order to study the effect of cysteine on PT6 fluorescence, different concentrations (150-6.25 μM) of the two peptides (Table 12) were prepared from the stock and mixed with PT6 such that the final concentration of the PT is a 10 time dilution of the stock. The fluorescence intensities were measured as described above.

OmpT [5] = biological target: T1, OmpT; remark: listed apart in the source
Description: This OmpT was obtained by overexpressing the protein in E. coli BL21 as inclusion bodies using a protocol reported earlier [Kramer, R. A. Zandwijken, D. Egmond, M. R. Dekker, N. Eur. J. Biochem. 267, 885-893 (2000)]. Briefly, the inclusion bodies were unfolded and solubilized using 8 M urea and subsequently refolded in the presence of DodMe2NPrSO3, a zwitterionic detergent. The refolded OmpT was purified and stored at 4° C. for further use. […] To this 100 μL reaction mixture, 10 μL of PTAA stock solution (0.1 mg/mL) was added. Fluorescence measurements and absorbance scans were collected as mentioned before. The raw fluorescence (F.) intensity scans are either plotted as is or reported as % fluorescence increase. The following formula was applied to convert fluorescence intensity (a.u.) to % fluorescence increase: […]

[6] = PTAA-peptide fluorescence and optical absorption measurements (no enzyme); conditions: 550 nm; peptide's highest concentration
Description: All PTAA and LL37FRRY mixing were carried out in the reaction buffer. All optical absorption and fluorescence measurements were carried out on 100 μL samples in a flat bottom 96 well plate using a TECAN Infinite® 200 PRO(Switzerland). Optical absorption measurements were collected from 330-650 nm. […] To understand the effect of intact and cleaved fragments on the fluorescence intensity and optical absorption of PTAA, LL37FRRV, frag1LL37FRRV (SEQ ID NO: 47) and frag2LL37FRRV (SEQ ID NO: 48) were added in different ratios (10:0, 8:2, 6:4, 4:6, 2:8, 0:10) while keeping the total peptide concentration at 50 μM. The fluorescence intensity and optical absorption spectra were measured as mentioned before.

OmpT and PgtE = assay: Substrate preference of OmpT versus PgtE, change in PT6 fluorescence with time; assay type: biochemical, E. coli K-12; Salmonella typhi; conditions: FIG. 15

T1 sequence (P09169 21-317): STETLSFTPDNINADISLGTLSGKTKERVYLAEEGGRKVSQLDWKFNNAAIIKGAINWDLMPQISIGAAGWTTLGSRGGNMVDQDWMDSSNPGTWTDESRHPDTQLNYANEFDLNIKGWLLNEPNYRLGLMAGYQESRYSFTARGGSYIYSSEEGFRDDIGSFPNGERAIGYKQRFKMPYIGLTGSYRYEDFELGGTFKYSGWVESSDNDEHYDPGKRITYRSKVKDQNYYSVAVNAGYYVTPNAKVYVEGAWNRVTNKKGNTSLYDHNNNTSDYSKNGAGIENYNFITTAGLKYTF

Substance: FRRV: library peptide of type AcGX1RRX2GC carrying the tetrapeptide sequence FRRV at the cleavage site (Ac-GFRRVGC)
- cleavage by OmpT of library peptide AcGX1RRX2GC (OmpT [1]; tetrapeptide sequence at the cleavage site): efficiently cleaved

Substance: C L L G D F F R R A K E K I G (CLLGDFFRRAKEKIG; LL37FRRA)
- rate of reduction in PT6 fluorescence (cleavage by OmpT) relative to the peptide of Examples 1-5 (OmpT [2]): faster rate
- rate of reduction in PT6 fluorescence (E. coli K12): faster rate

Substance: C L L G D F F R R Y K E K I G (CLLGDFFRRYKEKIG; LL37FRRY)
- difference in PTAA fluorescence intensity between intact peptide and peptide digested with OmpT (OmpT [3]): largest difference
- PT6 fluorescence intensity, peptide with versus without terminal cysteine [4]: much higher fluorescence intensity
- PTAA's fluorescence intensity less than with peptide in the absence of OmpT (OmpT [5]; 42 nM OmpT, 2 hours, 50 μM peptide): ~175%
- overall increase in PTAA's fluorescence intensity upon peptide addition [6]: ~200%
- incubation time with OmpT of the sample showing colour change from bronze to purple (OmpT [2]; PT6, normal visible light, FIG. 13B top): 70 min
- rate of reduction in PT6 fluorescence (cleavage by OmpT) relative to the peptide of Examples 1-5 (OmpT [2]): faster rate
- rate of reduction in PT6 fluorescence (E. coli K12): faster rate

Substance: C L L G D F F R R V K E K I G (CLLGDFFRRVKEKIG; LL37FRRV)
- times better then original peptide (substrate specific for OmpT) (OmpT [1]; SAMDI-MS peptide array, versus original peptide): 400 times
- increase in PTAA fluorescence intensity when mixed with OmpT-cleaved peptide fragments (OmpT [5]; peptide treated with OmpT in detergent micelles): no more than 20%

Substance: C L L G D F A R R A K E K I G (CLLGDFARRAKEKIG; LL37ARRA)
- substrate preference of OmpT compared with PgtE (OmpT and PgtE): OmpT exhibits a higher preference

Substance: C L L G D F Y R R A K E K I G (CLLGDFYRRAKEKIG; LL37YRRA)
- rate of reduction in PT6 fluorescence (cleavage by OmpT) relative to the peptide of Examples 1-5 (OmpT [2]): faster rate
- rate of reduction in PT6 fluorescence (E. coli K12): faster rate
